Measured values: article doi:10.1101/2022.03.13.484121

Legend:
[1] = molecular target: meprin α R372T, mature (activated) form (human (from the printed accession)) (UniProt Q16819); experiment: MALDI-TOF mass spectrometry
[2] = molecular target: pro-meprin α C308A (human (from the printed accession)) (UniProt Q16819); experiment: SEC-MALS

stoichiometry N [1]	stoichiometry N [2]	Substance
2	–	meprin α R372T, mature (activated) form (from UniProt Q16819 22-600) (enzyme)
–	2	pro-meprin α C308A (from UniProt Q16819 22-600) (enzyme)
